Here are results for 15 molecules from US20070224212A1 (Merck Sharp & Dohme, published 2007).

Among the targets are HIV-1 gp41 (strain BaL) (HIV-1 strain BaL); HIV-1 gp41 (strain MN-1) (HIV-1 strain MN-1, UniProt P05877 514-856); HIV-1 gp41 (strain 89.6) (HIV-1 strain 89.6); gp41 of SHIV-89.6P (SHIV-89.6P).
Common to all, as to test: cell-based or functional assay
Assay [1] concerns the target T1, HIV-1 gp41 (strain HXB2) (HIV-1 strain HXB2, UniProt P04578 512-856).
In assay [2] the target is T1, HIV-1 gp41 (strain HXB2). This is another data set of the same source.
For assay [3], the target named is T1, HIV-1 gp41 (strain HXB2). This is another data set of the same source.
The target in assay [4] is HIV-1 gp41 (strain NL4-3) (HIV-1 strain NL4-3).

Numbered stars: 1 amine (or outer) side, 2 acyl side, 3 side chain; on linkers, the order of the positions; unused ones are H or OH. Bridge positions count the residues as written; N and C are the ends. Square brackets hold non-standard residues; d marks the D form. Ends that are not written are not given here. I, II: the chains in the order shown. * marks the point of attachment. Cys(Acm) = Cys protected with acetamidomethyl (Acm), CC(=O)NCSC[C@H](N[*:1])C(=O)[*:2]; Biotin = O=C1N[C@H]2[C@H](CS[C@H]2CCCCC(=O)*)N1; Ttds = O=C(CCC(=O)[*:2])NCCCOCCOCCOCCCN[*:1]

Chain of HIV-1 gp41 (strain MN-1) (P05877 514-856 limits assumed): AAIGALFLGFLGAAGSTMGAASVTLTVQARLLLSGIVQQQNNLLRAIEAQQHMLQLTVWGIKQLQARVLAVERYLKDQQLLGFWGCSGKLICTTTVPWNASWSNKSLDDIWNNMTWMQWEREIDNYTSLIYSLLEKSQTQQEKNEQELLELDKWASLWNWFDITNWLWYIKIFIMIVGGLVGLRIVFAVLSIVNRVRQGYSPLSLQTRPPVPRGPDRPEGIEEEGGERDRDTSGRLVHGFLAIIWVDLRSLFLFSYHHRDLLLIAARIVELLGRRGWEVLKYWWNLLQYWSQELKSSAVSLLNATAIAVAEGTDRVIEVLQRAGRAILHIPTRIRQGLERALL

B1: (CCI10N17)3 (peptide)
peptide: Ac-CCGGIKKKIEAIEKLLQLTVWGIKQLQARIL-NH2
modifications: not fully specified (bridges); also: homotrimer of three chains, cysteine pairing not given here
On to B1, for which, in the assay with HIV-1 gp41 (strain HXB2) [1], the “IC50, anti-viral assay against HIV-1 HXB2 (FIG. 13)” value (“IC50, anti-viral assay” for short) is 24 nM; the “fold change of IC50 against (CCIZN17)3, anti-viral assay against HIV-1 HXB2 (FIG. 13)” value is around 150 fold; the “fold change of IC50 against IZN17, anti-viral assay against HIV-1 HXB2 (FIG. 13)” value is around 10 fold.

B2: (Biotin-CCIZN23)3 (peptide)
peptide: Biotin-GCCGGIKKEIEAIKKEQEAIKKKIEAIEKEIEAQQHLLQLTVWGIKQLQARIL
modifications: not fully specified (bridges); also: covalent homotrimer via three interchain disulfides
For B2, the “IC50, single-cycle HIV infectivity assay” value in the assay with HIV-1 gp41 (strain HXB2) [2] was determined as 0.316 nM.

B3: Biotin-IZN23 (peptide)
peptide: Biotin-GGIKKEIEAIKKEQEAIKKKIEAIEKEIEAQQHLLQLTVWGIKQLQARIL
As for B3, in the assay with HIV-1 gp41 (strain HXB2) [2], the “IC50, single-cycle HIV infectivity assay” value was determined as 2.17 nM.

B4: ac-C(Acm)(thioS17N17)3 (peptide)
peptide 1: CCCGGIEKKIEAIEKKIEAIEKLLQLTVWGIKQLQARIL
peptide 2: GGGIEKKIEAIEKKIEAIEKLLQLTVWGIKQLQARIL
modifications: N-terminal acetyl (from bromoacetyl) joined by a thioether bond to a Cys of the CC chain; N-terminal acetyl; Cys1 thiol protected with Acm; Ttds linker between Cys1 and Cys2; Cys2 and Cys3 each joined by a thioether bond to the N-terminal acetyl of a GGGS17N17 chain
Take B4: in the assay with HIV-1 gp41 (strain HXB2) [1], the “IC50, single cell infectivity assay, HIV-1 HXB2” value was determined as 0.27 nM.

B5: ac-C(Acm)(thioE10N17)3 (peptide)
peptide 1: Ac-[Cys(Acm)][Ttds]CCIEEKIEEIEELLQLTVWGIKQLQARIL
peptide 2: Ac-GGGIEEKIEEIEELLQLTVWGIKQLQARIL
modifications: bridge I:N-I:4; thioether (positions not given here); not fully specified (bridges); also: trimer, copy numbers of chains not given here
On to B5, for which the “IC50, anti-viral activity against HIV-HXB2” value (“IC50 … against HIV-HXB2” for short) with HIV-1 gp41 (strain HXB2) [3] is 150 nM.

B6: IZN17Ala4 (peptide)
peptide: Ac-IKKEIEAIKKEQEAIKKKIEAIEKLLQLTVWGIKALAAAIA-NH2
With B6, the “IC50 … against HIV-HXB2” value with HIV-1 gp41 (strain HXB2) [3] came to 25.3 nM. For the same molecule, the “IC50, single-cycle infectivity assay, HIV-1 HXB2 (FIG. 12A)” value with HIV-1 gp41 (strain HXB2) [1] is 25 nM.

B7: (CCIZN17)3 (peptide)
peptide: Ac-CCGGIKKEIEAIKKEQEAIKKKIEAIEKLLQLTVWGIKQLQARIL-NH2
modifications: not fully specified (bridges); also: homotrimer of three chains, cysteine pairing not given here
B7: the “IC50, anti-viral assay” value in the assay with HIV-1 gp41 (strain HXB2) [1] worked out at 0.132 nM. The “IC50, single-cycle HIV infectivity assay” value came out at 0.1 nM in assay [4]; 0.34 nM with HIV-1 gp41 (strain BaL); 0.9 nM with HIV-1 gp41 (strain MN-1); 8 nM with HIV-1 gp41 (strain 89.6); 0.04 nM with HIV-1 gp41 (strain HXB2) [2]; 6.9 nM with gp41 of SHIV-89.6P.

B8: NH2-C(Fm)(thioIZN17)3 (peptide)
peptide 1: CCCGGIKKEIEAIKKEQEAIKKKIEAIEKLLQLTVWGIKQLQARIL
peptide 2: GGGIKKEIEAIKKEQEAIKKKIEAIEKLLQLTVWGIKQLQARIL
modifications: N-terminal acetyl (from bromoacetyl) joined by a thioether bond to a Cys of the CC chain; free N-terminal amine; Cys1 thiol protected with Fm; Ttds linker between Cys1 and Cys2; Cys2 and Cys3 each joined by a thioether bond to the N-terminal acetyl of a GGGIZN17 chain
Consider B8, for which the “IC50, single cell infectivity assay, HIV-1 HXB2” value with HIV-1 gp41 (strain HXB2) [1] was 1.1 nM.

B9: ac-C(Acm)(thioIZN17)3 (peptide)
peptide 1: B8 peptide 1
peptide 2: B8 peptide 2
modifications: N-terminal acetyl (from bromoacetyl) joined by a thioether bond to a Cys of the CC chain; N-terminal acetyl; Cys1 thiol protected with acetamidomethyl (Acm); Ttds linker between Cys1 and Cys2; Cys2 and Cys3 each joined by a thioether bond to the N-terminal acetyl of a GGGIZN17 chain
With B9, in the assay with HIV-1 gp41 (strain HXB2) [3], the “IC50 … against HIV-HXB2” value is 0.24 nM.

B10: ac-C(thioIZN17)3 (peptide)
peptide 1: B8 peptide 1
peptide 2: B8 peptide 2
modifications: N-terminal acetyl (from bromoacetyl) joined by a thioether bond to a Cys of the CC chain; N-terminal acetyl; Cys1 free thiol; Ttds linker between Cys1 and Cys2; Cys2 and Cys3 each joined by a thioether bond to the N-terminal acetyl of a GGGIZN17 chain
Take B10: the “IC50, anti-viral activity assay, HIV-HXB2” value with HIV-1 gp41 (strain HXB2) [1] turned out to be 0.24 nM.

B11: (I10N17CC)3 (peptide)
peptide: IKKKIEAIEKLLQLTVWGIKQLQARILGGCC
modifications: not fully specified (bridges); also: homotrimer of three chains, cysteine pairing not given here
With B11, in the assay with HIV-1 gp41 (strain HXB2) [3], the “IC50 … against HIV-HXB2” value was 77.6 nM.

B12: (CCIZN13)3 (peptide)
peptide: Ac-CCGGIKKEIEAIKKEQEAIKKKIEAIEKLLQLTVWGIKQLQ
modifications: not fully specified (bridges); also: homotrimer of three chains, cysteine pairing not given here
On to B12, for which, in the assay with HIV-1 gp41 (strain HXB2) [1], the “IC50, antiviral activity against HIV HXB2 (FIG. 13)” value came to 85.3 nM.

B13: (CCIZN17Ala4)3 (peptide)
peptide: Ac-CCGGIKKEIEAIKKEQEAIKKKIEAIEKLLQLTVWGIKALAAAIA-NH2
modifications: not fully specified (bridges); also: homotrimer of three chains, cysteine pairing not given here
B13: the “IC50 … against HIV-HXB2” value with HIV-1 gp41 (strain HXB2) [3] amounted to 47 nM.

B14: (CCS17N17)3 (peptide)
peptide chain of the covalent trimer: Ac-CCGGIEKKIEAIEKKIEAIEKLLQLTVWGIKQLQARIL-NH2
modifications: not fully specified (bridges); also: homotrimer of three chains, cysteine pairing not given here
On to B14, for which the “IC50 … against HIV-HXB2” value in the assay with HIV-1 gp41 (strain HXB2) [3] is 0.33 nM.

B15: IZN17 (peptide)
peptide: Ac-IKKEIEAIKKEQEAIKKKIEAIEKLLQLTVWGIKQLQARIL-NH2
modifications: also: non-covalent trimeric coiled-coil
For B15, in the assay with HIV-1 gp41 (strain HXB2) [1], the “IC50, anti-viral assay” value was determined as 1.68 nM and the “IC50, single-cycle infectivity assay, HIV-1 HXB2” value was 0.2 nM. For the same molecule, the “IC50, single-cycle HIV infectivity assay” value with HIV-1 gp41 (strain BaL) amounted to 3.2 nM. The “IC50, single-cycle HIV infectivity assay” value with HIV-1 gp41 (strain HXB2) [2] was found to be 1.7 nM.
